This note sets out measurements from US20180265594A1.

Assay [1] addresses αHGF S3gG (HGF-specific 3-piece Surrobody). In words: capture ELISA: anti-VpreB1 IgG (2460B04 IgG1) coated, S3gG diluted without serum; the concentration is that of S3gG. (ELISA stands for enzyme-linked immunosorbent assay.)
For assay [2] the target is unchanged. Description: capture ELISA: anti-VpreB1 IgG (2460B04 IgG1) coated, S3gG diluted in 50% mouse serum; the concentration is that of S3gG.
Assay [3] shares this target. Description: capture ELISA: anti-VpreB1 IgG (2460B04 IgG1) coated, S3gG diluted in 50% human or 50% monkey serum; the concentration is that of S3gG.
Assay [4] deals with αHGF S2gG (HGF-specific 2-piece Surrobody). In words: capture ELISA: anti-VpreB1 IgG (2460B04 IgG1) coated, S2gG diluted without serum, detected with HRP-goat anti-E tag antibody; the concentration is that of S2gG.
The target is the same in assay [5]. Description: capture ELISA: anti-VpreB1 IgG (2460B04 IgG1) coated, S2gG diluted in 50% mouse serum, detected with HRP-goat anti-E tag antibody; the concentration is that of S2gG.
Assay [6] shares this target. In words: capture ELISA: anti-VpreB1 IgG (2460B04 IgG1) coated, S2gG diluted in 50% human or 50% monkey serum, detected with HRP-goat anti-E tag antibody; the concentration is that of S2gG.

B1: anti-human VpreB1 IgG1 (2460B04 IgG1) (antibody, V domains shown)
VH: EVQLVESGGGLVKPGGSLRLSCAASGFTFSNFEMNWVRQAPGKGLEWVSGISSNGRYINYADSVKGRFTISRDNAKNSLYLQMNSLRAEDTAVYYCARVVDFDQDYNGFDYWGQGTLVTVSS
VL: DIQLTQSPSFLSASVGDRVTITCRASQGISTDLNWYQQKPGKAPKLLIYAASNLESGVPSRFSGSGSGTEFTLTISSLQPEDFATYYCQQSYNWPYTFGGGTKVEIK
modifications: Used unlabeled, biotin-, DIG- or HRP-labeled; the letters do not carry the labels.
One may read the EC50 (read off the curve) as the midpoint of the concentration-response curve. As for B1, the EC50 (read off the curve) in assay [1] was 4 ng/mL; in assay [2], 20 ng/mL; in assay [3], 6 ng/mL; in assay [4], 4 ng/mL; in assay [5] it was 20 ng/mL; in assay [6], 6 ng/mL.
